From patent publication WO2021212049A2

Biological target: recombinant SARS-CoV-2 S protein ectodomain (residues 14-1211), 2P, furin site mutated, foldon, 8XHis (SARS-CoV-2) (UniProt P0DTC2)
Test: ELISA on coated antigen, anti-human IgG-HRP

Q: Which minimum positive concentration does the source give for mAb 2B04 (antibody) here?
A: < 5 µg/mL
